Reference: PMC9845149, “Interplay between C1-inhibitor and group IIA secreted phospholipase A2 impairs their respective function” (Immunologic Research, 2022)

Molecular target: T1, human plasma-derived C1-esterase inhibitor (human, UniProt P05155 23-500)
T1 construct: Glycoprotein from plasma; also called pdC1-INH; C1-INH; source: bought: Cinryze, Takeda Pharmaceutical Company (human plasma-derived); also in plasma of healthy donors (functional assay)
T1 sequence (looked up): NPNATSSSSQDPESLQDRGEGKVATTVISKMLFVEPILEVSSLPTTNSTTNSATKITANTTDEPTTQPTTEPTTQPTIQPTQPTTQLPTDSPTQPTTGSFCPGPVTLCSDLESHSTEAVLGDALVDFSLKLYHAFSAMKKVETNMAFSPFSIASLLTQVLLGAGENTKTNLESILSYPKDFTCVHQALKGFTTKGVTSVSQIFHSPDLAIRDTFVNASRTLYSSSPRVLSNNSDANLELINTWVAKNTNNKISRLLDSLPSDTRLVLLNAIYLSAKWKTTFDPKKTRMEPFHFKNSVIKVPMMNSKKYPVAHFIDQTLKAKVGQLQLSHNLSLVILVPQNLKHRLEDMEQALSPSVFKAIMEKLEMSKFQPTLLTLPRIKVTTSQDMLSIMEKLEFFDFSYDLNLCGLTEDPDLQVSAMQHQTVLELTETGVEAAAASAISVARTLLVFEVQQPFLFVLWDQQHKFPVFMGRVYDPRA
Assay: SPR; Biacore 3000; hGIIA N1A immobilised at 800 RU on a CM5 chip (EDC/NHS), BSA as reference channel; C1-INH injected at 10, 20, 30, 40, 50 µM in HBS (10 mM Hepes, pH 7.4, 150 mM NaCl, 3 mM EDTA), 30 µL/min; 1:1 Langmuir model
Settings: both partners purified

Kd: 6.7 µM
koff: 0.0125 s⁻¹
B1: Recombinant human group IIA secreted phospholipase A2, N1A catalytically active mutant (enzyme, UniProt P14555 21-144, looked up)
chain: ALVNFHRMIKLTTGKEAALSYGFYGCHCGVGGRGSPKDATDRCCVTHDCCYKRLEKRGCGTKFLSYKFSNSGSRITCAKQDSCRSQLCECDKAAATCFARNKTTYNKKYQYYSNKHCRGSTPRC
notes: human group IIA secreted phospholipase A2 (hGIIA), UniProt P14555; N1A mutation facilitates the removal of the initiator methionine; PDB 1DCY chain A covers aa 1-124; also called hGIIA; hGIIA N1A
